The data set deals with the molecule itself. Briefly: cross-linking; interprotein disulfide formed in transfected HEK-293 cells (vehicle, NCA 100 µmol/L 30 min or AS 500 µmol/L 15 min); homogenates in non-reducing Laemmli buffer with 100 mmol/L maleimide, SDS-PAGE, western blot for PKGIα; 150 kDa band lost with 2-mercaptoethanol.

B1: cGMP-dependent protein kinase I-alpha (PKGIα), human, wildtype (enzyme, UniProt Q13976 1-671, looked up)
chain: MSELEEDFAKILMLKEERIKELEKRLSEKEEEIQELKRKLHKCQSVLPVPSTHIGPRTTRAQGISAEPQTYRSFHDLRQAFRKFTKSERSKDLIKEAILDNDFMKNLELSQIQEIVDCMYPVEYGKDSCIIKEGDVGSLVYVMEDGKVEVTKEGVKLCTMGPGKVFGELAILYNCTRTATVKTLVNVKLWAIDRQCFQTIMMRTGLIKHTEYMEFLKSVPTFQSLPEEILSKLADVLEETHYENGEYIIRQGARGDTFFIISKGTVNVTREDSPSEDPVFLRTLGKGDWFGEKALQGEDVRTANVIAAEAVTCLVIDRDSFKHLIGGLDDVSNKAYEDAEAKAKYEAEAAFFANLKLSDFNIIDTLGVGGFGRVELVQLKSEESKTFAMKILKKRHIVDTRQQEHIRSEKQIMQGAHSDFIVRLYRTFKDSKYLYMLMEACLGGELWTILRDRGSFEDSTTRFYTACVVEAFAYLHSKGIIYRDLKPENLILDHRGYAKLVDFGFAKKIGFGKKTWTFCGTPEYVAPEIILNKGHDISADYWSLGILMYELLTGSPPFSGPDPMKTYNIILRGIDMIEFPKKIAKNAANLIKKLCRDNPSERLGNLKNGVKDIQKHKWFEGFNWEGLRKGTLTPPIIPSVASPTDTSNFDSFPEDNDEPPPDDNSGWDIDF
modifications: interprotein disulfide at Cys42 (between the two subunits); intradisulfide Cys117-Cys195 after HNO donors
notes: written here as one chain because the row is of the protein with itself; also called WT PKGIα; PKGIα WT; source: HEK-293, transfected (pcDNA3), in cell homogenate
For orientation: stoichiometry N means the number of molecules, sites or subunits per partner or assembly. Consider B1, for which the “stoichiometry N” value turned out to be 2.

These data come from paper PMC5577323, “Oxidant sensor in the cGMP-binding pocket of PKGIα regulates nitroxyl-mediated kinase activity” (Scientific Reports, 2017).
